Residues, ends and D or L forms follow the SMILES beside them.
Experiments:
Assay type in all cases: cell-based
[1] = target: T1, NPSR receptor (Homo sapiens, UniProt Q6W5P4); assay: CRE-luciferase reporter assay in HEK293T cells over-expressing NPSR (cAMP signaling); conditions: for EC50 / Agonist effect (CRE) EC50: HEK293T co-transfected with CRE-luciferase reporter (50 ng), pSV-β-Gal (5 ng), NPSR plasmid (50 ng), after 36 h, 18 h with peptide in serum-free media, normalized to β-galactosidase, at least three experiments in triplicates, apparent EC50, Graphpad Prism 5.0; for EC50: read-out: Agonist effect (CRE) EC50; for bioactivity in the CRE-luciferase assay (in words): 6th position substitution mutants, HEK293T with NPSR, Fig. 3A
T1 construct: Full length cDNA for the NPSR receptor was purchased from OriGene Technologies; host or cells: HEK293T
T1 sequence (Q6W5P4 1-371): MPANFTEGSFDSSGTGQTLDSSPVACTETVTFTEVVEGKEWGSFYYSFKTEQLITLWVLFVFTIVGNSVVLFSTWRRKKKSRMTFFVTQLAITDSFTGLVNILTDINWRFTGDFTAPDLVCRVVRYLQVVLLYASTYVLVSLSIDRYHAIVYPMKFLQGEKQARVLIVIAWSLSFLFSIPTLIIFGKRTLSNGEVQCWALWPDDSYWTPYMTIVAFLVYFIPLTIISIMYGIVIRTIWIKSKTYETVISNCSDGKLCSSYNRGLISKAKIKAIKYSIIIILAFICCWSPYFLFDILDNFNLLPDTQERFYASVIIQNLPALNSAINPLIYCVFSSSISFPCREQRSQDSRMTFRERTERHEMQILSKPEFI
Method: (§1) HEK293T cells seeded in 24-well plates were co-transfected with different luciferase reporters (50 ng), the pSV-β-Gal plasmid (5 ng), and the NPSR receptor plasmid (50 ng). After 36 h, cells were cultured in serum-free media for another 18 h with increasing doses of the various NPS peptides. Luciferase activities were determined using the luciferase assay kit (Promega) and normalized using β-galactosidase activities. All experiments were performed at least three times in triplicates. Data (EC50) were analyzed using Graphpad Prism 5.0.
(§2) Figure 2 Sequence comparison and lower NPSR receptor signaling ability of the L^6-NPS variant. (A) Alignment of NPS among diverse vertebrate species. Sequences were aligned by the ClustalW program. Stars indicate identical amino acids and double dots (:) indicate conserved amino acids. The predicted convertase cleavage sites (KR) were underlined and the 6th amino acid “V” or “L” in the mature peptide region are shown in bold. (B) Comparison of NPS and L^6-NPS signaling based on the CRE-luciferase assay. (C) Comparison of NPS and L^6-NPS signaling based on the NFAT luciferase assay. HEK293T cells seeded in 24-well plates were co-transfected with different luciferase reporters (50 ng), the pSV-β-Gal plasmid (5 ng), and the NPSR receptor plasmid (50 ng). After 36 h, cells were cultured in serum-free media for another 18 h with increasing doses of the various NPS peptides. EC50 values were analyzed using Graphpad Prism 5.0.
(§3) To compare the bioactivity of wide type NPS (NPS) and the SNP variant (L^6-NPS), we monitored their receptor-activation activities in vitro using HEK293T cells over-expressing NPSR. Because NPS activates NPSR by increasing cAMP production and intracellular Ca^2+ signaling, [10], we used CRE- and NFAT- response elements to measure cAMP and intracellular Ca2+ signaling respectively, [36]. As expected, treatment with wide-type NPS led to dose-dependent stimulation of both CRE- and NFAT- luciferase activities (Fig. 2B and C). We also performed the relaxin-LGR7 ligand-receptor pair as a positive control for the CRE-luciferase assay. Also, gastrin-CCKB ligand-receptor pair was used as a positive control for the SRE-luciferase assay. Cells transfected with the empty vector were also treated with NPS to serve as a negative control (Fig. S4).

[2] = target: T1, NPSR receptor; assay: NFAT-luciferase reporter assay in HEK293T cells over-expressing NPSR (intracellular Ca2+ signaling); conditions: HEK293T co-transfected with NFAT-luciferase reporter (50 ng), pSV-β-Gal (5 ng), NPSR plasmid (50 ng), after 36 h, 18 h with peptide in serum-free media, normalized to β-galactosidase, at least three experiments in triplicates, Graphpad Prism 5.0; for EC50: read-out: Agonist effect (NFAT) EC50
Method: as §1, §2, §3

[3] = target: T2, LGR7 (Homo sapiens, UniProt Q9HBX9); assay: CRE-luciferase assay, relaxin-LGR7 ligand-receptor pair (positive control); conditions: Fig. S4
T2 construct: expressed in transfected cells; host or cells: HEK293T (inferred from the general luciferase protocol)
T2 sequence (Q9HBX9 1-757): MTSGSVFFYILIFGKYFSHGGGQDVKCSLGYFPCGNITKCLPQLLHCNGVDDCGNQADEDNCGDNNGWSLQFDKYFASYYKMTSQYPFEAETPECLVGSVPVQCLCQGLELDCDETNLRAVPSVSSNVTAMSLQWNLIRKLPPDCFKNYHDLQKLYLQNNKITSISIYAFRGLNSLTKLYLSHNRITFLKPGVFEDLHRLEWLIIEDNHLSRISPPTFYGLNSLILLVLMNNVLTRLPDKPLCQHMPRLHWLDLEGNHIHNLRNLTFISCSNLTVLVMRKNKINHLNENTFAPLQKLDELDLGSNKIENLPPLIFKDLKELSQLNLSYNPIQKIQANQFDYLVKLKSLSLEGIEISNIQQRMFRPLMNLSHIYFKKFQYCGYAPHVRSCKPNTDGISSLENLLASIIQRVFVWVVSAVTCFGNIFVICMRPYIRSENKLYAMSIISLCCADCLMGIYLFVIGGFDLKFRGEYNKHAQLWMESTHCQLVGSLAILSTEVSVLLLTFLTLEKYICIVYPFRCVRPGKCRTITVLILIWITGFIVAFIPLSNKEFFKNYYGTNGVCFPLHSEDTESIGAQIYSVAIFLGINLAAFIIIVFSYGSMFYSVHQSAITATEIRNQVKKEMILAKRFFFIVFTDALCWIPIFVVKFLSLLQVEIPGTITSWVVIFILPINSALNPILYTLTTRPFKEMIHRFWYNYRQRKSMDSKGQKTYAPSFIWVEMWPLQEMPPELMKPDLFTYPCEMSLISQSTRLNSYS
Source text: as §3
Supplementary file pone.0083009.s004.pdf: Figure S4 Positive control and negative control for the CRE- and SRE- luciferase assay. […] (PDF) Click here for additional data file.

CSCC[C@H](NC(=O)CNC(=O)[C@@H](NC(=O)CNC(=O)[C@H](C)NC(=O)CNC(=O)[C@H](CC(N)=O)NC(=O)[C@H](CCCNC(=N)N)NC(=O)[C@H](Cc1ccccc1)NC(=O)[C@@H](N)CO)[C@@H](C)O)C(=O)N[C@@H](CCCCN)C(=O)N[C@@H](CCCCN)C(=O)N[C@H](C(=O)N[C@@H](CO)C(=O)N[C@@H](Cc1ccccc1)C(=O)N[C@@H](CCC(N)=O)C(=O)N[C@@H](CCCNC(=N)N)C(=O)N[C@@H](C)C(=O)N[C@@H](CCCCN)C(=O)N[C@@H](CO)C(=O)O)[C@@H](C)O [A^6-NPS] (H-SFRNGAGTGMKKTSFQRAKS-OH)
EC50 [1]: 534 nM | EC50 [2]: 958 nM

CC[C@H](C)[C@H](NC(=O)CNC(=O)[C@H](CC(N)=O)NC(=O)[C@H](CCCNC(=N)N)NC(=O)[C@H](Cc1ccccc1)NC(=O)[C@@H](N)CO)C(=O)NCC(=O)N[C@H](C(=O)NCC(=O)N[C@@H](CCSC)C(=O)N[C@@H](CCCCN)C(=O)N[C@@H](CCCCN)C(=O)N[C@H](C(=O)N[C@@H](CO)C(=O)N[C@@H](Cc1ccccc1)C(=O)N[C@@H](CCC(N)=O)C(=O)N[C@@H](CCCNC(=N)N)C(=O)N[C@@H](C)C(=O)N[C@@H](CCCCN)C(=O)N[C@@H](CO)C(=O)O)[C@@H](C)O)[C@@H](C)O [I^6-NPS] (H-SFRNGIGTGMKKTSFQRAKS-OH)
EC50 [1]: 174 nM | EC50 [2]: 280 nM

CSCC[C@H](NC(=O)CNC(=O)[C@@H](NC(=O)CNC(=O)[C@H](CC(C)C)NC(=O)CNC(=O)[C@H](CC(N)=O)NC(=O)[C@H](CCCNC(=N)N)NC(=O)[C@H](Cc1ccccc1)NC(=O)[C@@H](N)CO)[C@@H](C)O)C(=O)N[C@@H](CCCCN)C(=O)N[C@@H](CCCCN)C(=O)N[C@H](C(=O)N[C@@H](CO)C(=O)N[C@@H](Cc1ccccc1)C(=O)N[C@@H](CCC(N)=O)C(=O)N[C@@H](CCCNC(=N)N)C(=O)N[C@@H](C)C(=O)N[C@@H](CCCCN)C(=O)N[C@@H](CO)C(=O)O)[C@@H](C)O [L^6-NPS] (H-SFRNGLGTGMKKTSFQRAKS-OH)
EC50 [1]: 586 nM | EC50 [2]: 975 nM

CSCC[C@H](NC(=O)CNC(=O)[C@@H](NC(=O)CNC(=O)[C@@H](NC(=O)CNC(=O)[C@H](CC(N)=O)NC(=O)[C@H](CCCNC(=N)N)NC(=O)[C@H](Cc1ccccc1)NC(=O)[C@@H](N)CO)C(C)C)[C@@H](C)O)C(=O)N[C@@H](CCCCN)C(=O)N[C@@H](CCCCN)C(=O)N[C@H](C(=O)N[C@@H](CO)C(=O)N[C@@H](Cc1ccccc1)C(=O)N[C@@H](CCC(N)=O)C(=O)N[C@@H](CCCNC(=N)N)C(=O)N[C@@H](C)C(=O)N[C@@H](CCCCN)C(=O)N[C@@H](CO)C(=O)O)[C@@H](C)O [NPS, Neuropeptide S, reference compound] (H-SFRNGVGTGMKKTSFQRAKS-OH)
EC50 [1]: 36.9 nM | EC50 [2]: 44.6 nM

D^6-NPS: NPS mutant with aspartic acid at the 6th position (SFRNGDGTGMKKTSFQRAKS; Neuropeptide S; UniProt P0C0P6 70-89, looked up, variant V6D)
bioactivity in the CRE-luciferase assay (in words) [1]: complete loss of bioactivity | Agonist effect (CRE) EC50 [1]: inactive | Agonist effect (NFAT) EC50 [2]: inactive

F^6-NPS: NPS mutant with phenylalanine at the 6th position (SFRNGFGTGMKKTSFQRAKS; Neuropeptide S; UniProt P0C0P6 70-89, looked up, variant V6F)
bioactivity in the CRE-luciferase assay (in words) [1]: complete loss of bioactivity | Agonist effect (CRE) EC50 [1]: inactive | Agonist effect (NFAT) EC50 [2]: inactive

K^6-NPS: NPS mutant with lysine at the 6th position (SFRNGKGTGMKKTSFQRAKS; Neuropeptide S; UniProt P0C0P6 70-89, looked up, variant V6K)
bioactivity in the CRE-luciferase assay (in words) [1]: complete loss of bioactivity | Agonist effect (CRE) EC50 [1]: inactive | Agonist effect (NFAT) EC50 [2]: inactive

N^6-NPS: NPS mutant with asparagine at the 6th position (SFRNGNGTGMKKTSFQRAKS; Neuropeptide S; UniProt P0C0P6 70-89, looked up, variant V6N)
bioactivity in the CRE-luciferase assay (in words) [1]: complete loss of bioactivity | Agonist effect (CRE) EC50 [1]: inactive | Agonist effect (NFAT) EC50 [2]: inactive

relaxin
stimulation of CRE-luciferase via LGR7 [3]: normal stimulation

Reference: publication PMC3873911 (PLoS ONE, 2013)
